Laboratory results published in article PMC8231094.

Biological target: rabbit muscle actin (rabbit) (UniProt P68135)
Assay: SPR; Biacore X100; rabbit muscle actin (10 ug/ml) covalently coupled to a CM5 chip by EDC/NHS, control lane without actin subtracted; formin fragments injected at 12.3 nM to 1 uM (1:3 serial dilution), 120 s injection, 600 s dissociation, 30 ul/min, 25 degrees; running buffer 10 mM HEPES pH 7.4, 150 mM NaCl, 3 mM EDTA, 10 mM MgCl2, 0.2 mM ADP, 0.5 mM DTT

- Kd: 54.9 nM
Sequence: SYMBIOTIC FORMIN 1 (SYFO1) FH1FH2 domain (domain or fragment)
